Where a chain is given by its changes, count along the chain named.
Tests used:
[1] = molecular target: T1, corticotropin-releasing hormone (CRH) peptide (human and mouse, UniProt P01143 145-185 (rat entry), not fully specified); experiment: cell-based or functional assay
T1 peptide: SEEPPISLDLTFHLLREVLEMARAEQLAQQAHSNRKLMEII

[2] = molecular target: T1, corticotropin-releasing hormone (CRH) …; experiment: cell-based or functional assay

B1: PR302309-13 (antibody, human IgG1, kappa, V domains shown)
VH: QVQLVQSGSELKKPGASVKVSCKASGYTFTNYGMNWVRQAPGQGLEWMGWINTYTGEPIYTDDFKGRFVFSLDTSVSTAYLQISSLKAEDTAVYYCARSTMITTGGVFAYWGQGTLVTVSS
VL: DVLMAQTPLSLPVSLGDQASISCRSSQTIVHSDGNTYLEWYLQKPGQSPKLLIYKVSNRFSGVPDRFSGSGSGTDFTLKISRVEAEDLGVYYCFQGSHVPWTFGGGTKLEIKR
hCRHR1-Luc 0.5 nM CRH IC50 [1]: 7.23 nM

B2: PR302309-15 (antibody, human IgG1, kappa, V domains shown)
VH: QVQLVQSGAEVKKPGASVKVSCKASGYTFTNYGMNWVRQAPGQRLEWMGWINTYTGEPIYTDDFKGRVTITRDTSASTAYMELSSLRSEDTAVYYCARSTMITTGGVFAYWGQGTLVTVSS
VL: B1 VL
hCRHR1-Luc 0.5 nM CRH IC50 [1]: 10.5 nM

B3: PR302309-16 (antibody, human IgG1, kappa, V domains shown)
VH: B2 VH with V2I, R72L, A97S
VL: B1 VL
hCRHR1-Luc 0.5 nM CRH IC50 [1]: 5.47 nM

B4: PR302309-14 (antibody, human IgG1, kappa, V domains shown)
VH: B1 VH with V2I, A97S
VL: B1 VL
hCRHR1-Luc 0.5 nM CRH IC50 [1]: 1.68 nM

B5: PR302309-1 (antibody, human IgG1, kappa, V domains shown)
VH: QIQLVQSGPELKKPGETVKISCKASGYTFTNYGMNWVKQAPGKVLKWMGWINTYTGEPIYTDDFKGRFAFSLETSASTAYLQINNLKNEDTATYFCSRSTMITTGGVFAYWGQGTLVTVSA
VL: DVVMTQSPLSLPVTLGQPASISCRSSQTIVHSDGNTYLEWFQQRPGQSPRRLIYKVSNRFSGVPDRFSGSGSGTDFTLKISRVEAEDVGVYYCFQGSHVPWTFGGGTKVEIKR
hCRHR1-Luc 0.5 nM CRH IC50 [1]: 4.42 nM

B6: PR302309-20 (antibody, human IgG1, kappa, V domains shown)
VH: B2 VH with V2I, R72L, A97S
VL: B1 VL with L3V, A5T, P12S, S14T, L15P, D17Q, Q18P, K50Q, L109V
hCRHR1-Luc 0.5 nM CRH IC50 [1]: 3.07 nM

B7: PR302309-10 (antibody, human IgG1, kappa, V domains shown)
VH: B1 VH with V2I, A97S
VL: B1 VL with L3V, A5T, P12S, S14T, L15P, D17Q, Q18P, K50Q, L109V
hCRHR1-Luc 0.5 nM CRH IC50 [1]: 3.2 nM

B8: PR302309-17 (antibody, human IgG1, kappa, V domains shown)
VH: B1 VH
VL: B5 VL with F41Y, R51L, V88L
hCRHR1-Luc 0.5 nM CRH IC50 [1]: 6.69 nM

B9: PR302309-5 (antibody, human IgG1, kappa, V domains shown)
VH: B5 VH
VL: B5 VL with V2I, S7T, L11S, F41L, S48P, R51L, S72A
hCRHR1-Luc 0.5 nM CRH IC50 [1]: 0.454 nM

B10: PR302309-4 (antibody, human IgG1, kappa, V domains shown)
VH: B5 VH
VL: B1 VL with L3V, A5T, P12S, S14T, L15P, D17Q, Q18P, K50Q, L109V
hCRHR1-Luc 0.5 nM CRH IC50 [1]: 1.26 nM

B11: PR302309-6 (antibody, human IgG1, kappa, V domains shown)
VH: B5 VH
VL: B5 VL with S7T, L11S, F41Y, S48P, R51L, S72A, V88L
hCRHR1-Luc 0.5 nM CRH IC50 [1]: 1.08 nM

B12: PR302309-7 (antibody, human IgG1, kappa, V domains shown)
VH: B1 VH with V2I, A97S
VL: B5 VL
hCRHR1-Luc 0.5 nM CRH IC50 [1]: 6.38 nM

B13: PR302309-9 (antibody, human IgG1, kappa, V domains shown)
VH: B1 VH with V2I, A97S
VL: B5 VL with V2I, S7T, P12S, L15P, F41Y, Q42L, R44K, R50Q, R51L
hCRHR1-Luc 0.5 nM CRH IC50 [1]: 6.08 nM

B14: PR302309-19 (antibody, human IgG1, kappa, V domains shown)
VH: B2 VH with V2I, R72L, A97S
VL: B5 VL with F41Y, R51L, V88L
hCRHR1-Luc 0.5 nM CRH IC50 [1]: 4.83 nM

B15: PR302309-2 (antibody, human IgG1, kappa, V domains shown)
VH: B5 VH
VL: B5 VL with F41Y, R51L, V88L
hCRHR1-Luc 0.5 nM CRH IC50 [1]: 0.773 nM

B16: PR302309-3 (antibody, human IgG1, kappa, V domains shown)
VH: B5 VH
VL: B5 VL with V2I, S7T, P12S, L15P, F41Y, Q42L, R44K, R50Q, R51L
hCRHR1-Luc 0.5 nM CRH IC50 [1]: 2.22 nM

B17: PR302309-21 (antibody, human IgG1, kappa, V domains shown)
VH: B2 VH with V2I, R72L, A97S
VL: B5 VL with S7T, L11S, F41Y, S48P, R51L, S72A, V88L
hCRHR1-Luc 0.5 nM CRH IC50 [1]: 8.44 nM

B18: PR302309-12 (antibody, human IgG1, kappa, V domains shown)
VH: B1 VH with V2I, A97S
VL: B5 VL with S7T, L11S, F41Y, S48P, R51L, S72A, V88L
hCRHR1-Luc 0.5 nM CRH IC50 [1]: 4.47 nM

B19: PR302036 (antibody, human IgG1, kappa, V domains shown)
VH: EMQLVESGGGLVQPGGSLRLSCAASGFTFSNYWMNWVRQAPGKGLEWVAEIRLKSNNYATHYAESVKGRFTISRDDSKSSVYLQMNSLKTEDTAVYYCTVGTLVYWGQGTLVTVSS
VL: DIVLTQSPDSLAVSLGERATINCRASQSVSTSTYNYMHWFQQKPGQPPKLLIKFASNLESGVPDRFSGSGSGTDFTLTISSLQAEDTAVYYCQHSWEIPYTFGQGTKLEIKR
unlabelled nM value (Table 5 matrix; likely hCRHR1-Luc IC50 as in Tables 6-8) [2]: 1.4 nM

B20: PR302038 (antibody, human IgG1, kappa, V domains shown)
VH: B19 VH
VL: EIVLTQSPATLSLSPGERATLSCRASQSVSTSTYNYMHWFQQKPGQAPRLLIKFASNLESGIPARFSGSGSGTDFTLTISSLEPEDTAVYYCQHSWEIPYTFGQGTKLEIKR
unlabelled nM value (Table 5 matrix; likely hCRHR1-Luc IC50 as in Tables 6-8) [2]: 3.34 nM

B21: PR302050 (antibody, human IgG1, kappa, V domains shown)
VH: B19 VH with R19K, P41S, S80T
VL: B19 VL
unlabelled nM value (Table 5 matrix; likely hCRHR1-Luc IC50 as in Tables 6-8) [2]: 0.572 nM

B22: PR302029 (antibody, human IgG1, kappa, V domains shown)
VH: B19 VH with M2V, A49G, S79N, V81L
VL: B19 VL
unlabelled nM value (Table 5 matrix; likely hCRHR1-Luc IC50 as in Tables 6-8) [2]: 2.65 nM

B23: PR302043 (antibody, human IgG1, kappa, V domains shown)
VH: B19 VH with M2V, R19K, P41S, A49G, S79N, S80T, V81A, V100R
VL: B19 VL
unlabelled nM value (Table 5 matrix; likely hCRHR1-Luc IC50 as in Tables 6-8) [2]: 3.87 nM

B24: PR302031 (antibody, human IgG1, kappa, V domains shown)
VH: B19 VH with M2V, A49G, S79N, V81L
VL: B20 VL
unlabelled nM value (Table 5 matrix; likely hCRHR1-Luc IC50 as in Tables 6-8) [2]: 14 nM

B25: PR302045 (antibody, human IgG1, kappa, V domains shown)
VH: B19 VH with M2V, R19K, P41S, A49G, S79N, S80T, V81A, V100R
VL: B20 VL
unlabelled nM value (Table 5 matrix; likely hCRHR1-Luc IC50 as in Tables 6-8) [2]: 15.3 nM

B26: PR301777 (antibody, human IgG1, kappa, V domains shown)
VH: EMKLEESGGGLVQPGGSMKLSCVASGFTFSNYWMNWVRQSPEKGLEWVAEIRLKSNNYATHYAESVKGRFTISRDDSKSGVYLQMNNLGAEDTGIYYCTVGTLVYWGQGTLVTVSA
VL: DIVLTQSPASLAVSLGQRATISCRASQSVSTSTYNYMHWFQQKPGQPPKLLIKFASNLESGVPARFSGSGSGTDFTLNIHPVEEEDTATFYCQHSWEIPYTFGGGTKLEIKR
unlabelled nM value (Table 5 matrix; likely hCRHR1-Luc IC50 as in Tables 6-8) [2]: 0.674 nM

From patent publication US20250197490A1 (HBM ALPHA THERAPEUTICS, published 2025)
